Reference: patent US5455181A, “Thrombin-inhibitory proteins from terrestrial leeches” (BASF Aktiengesellschaft, priority 1991, dated 1995)
No end group written: not given here.

Biological target: T1, Thrombin (Homo sapiens, UniProt P00734)
T1 construct: purchased Boehringer Mannheim
Assay: Determination of the inhibition of thrombin (Chromozym TH chromogenic substrate, absorption at 405 nm)
Format: biochemical
Conditions: periplasmic expression in E. coli DH 5α, fusion protein with maltose binding protein
Protocol: The purification of the proteins can be followed by a thrombin activity assay. It is expedient to use for this an optical assay in which a chromogenic substrate, for example Chromozym TH, is converted by thrombin. The fractions containing the novel proteins can be identified on addition to this optical assay by their thrombin-inhibiting action.
Thrombin (Boehringer Mannheim) was dissolved to a final concentration of 25 mU/ml in phosphate-buffered saline (PBS) ([…] NaCl; 0.2 g/1 […]; 0.144 g/l sodium phosphate; 0.2 g/l potassium phosphate, pH 7.5).
Chromozym TH (Boehringer Mannheim) was dissolved in 20 ml of H2 O/vial.
50 μl of thrombin solution and 100 μl of Chromozym plus 25 μl of sample or buffer were placed in the wells of a microtiter plate. The absorption at 405 nm was measured immediately thereafter at time 0 and after 30 minutes at 37° C.
The thrombin activity leads to liberation from the chromogenic substrate of a dye which absorbs at 405 nm. The inhibition of thrombin by a thrombin inhibitor is evident from a smaller increase in absorption at 405 nm and was quantified using a calibration plot.

Substance: thrombin inhibitor: recombinant protein, SEQ ID NO: 23 position 1 to 57, expressed in E. coli as fusion protein with maltose binding protein (MFSTKMFVVFVAVCICVTQSIRFGMGKVPCPDGEVGYTCDCGEKICLYGQSCNDGQC; cysteine pairing not given here; also: expressed as fusion protein with maltose binding protein)
- concentration of the thrombin inhibitor: 1250 units per liter of culture medium
